Source: PMC8103725 (FASEB BioAdvances, 2021)

Biological target: HEG1–KRIT1 interaction (EGFP‐KRIT1 FERM domain binding to HEG1 cytoplasmic tail on beads) (Homo sapiens, UniProt O00522)
Experiment: Flow cytometry bead assay for the HEG1–KRIT1 FERM domain interaction
Conditions: bead assay, compared with wild‐type KRIT1

Sequence of HEG1–KRIT1 interaction (EGFP‐KRIT1 FERM domain binding to HEG1 cytoplasmic tail on beads) (O00522 417-736): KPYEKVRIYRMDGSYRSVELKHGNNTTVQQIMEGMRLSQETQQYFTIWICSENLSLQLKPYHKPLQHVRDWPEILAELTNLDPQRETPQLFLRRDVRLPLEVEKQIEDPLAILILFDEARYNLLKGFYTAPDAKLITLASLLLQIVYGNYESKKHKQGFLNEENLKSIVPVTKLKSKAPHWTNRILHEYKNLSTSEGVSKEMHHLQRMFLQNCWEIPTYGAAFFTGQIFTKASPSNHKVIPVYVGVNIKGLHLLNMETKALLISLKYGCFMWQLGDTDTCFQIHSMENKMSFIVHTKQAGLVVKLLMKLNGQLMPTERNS

binding to HEG1: dramatic reduction in binding
B1: KRIT1 (L717,721A) mutant: EGFP‐KRIT1 FERM domain mutant with reduced affinity for HEG1 (protein)
chain: KPYEKVRIYRMDGSYRSVELKHGNNTTVQQIMEGMRLSQETQQYFTIWICSENLSLQLKPYHKPLQHVRDWPEILAELTNLDPQRETPQLFLRRDVRLPLEVEKQIEDPLAILILFDEARYNLLKGFYTAPDAKLITLASLLLQIVYGNYESKKHKQGFLNEENLKSIVPVTKLKSKAPHWTNRILHEYKNLSTSEGVSKEMHHLQRMFLQNCWEIPTYGAAFFTGQIFTKASPSNHKVIPVYVGVNIKGLHLLNMETKALLISLKYGCFMWQLGDTDTCFQIHSMENKMSFIVHTKQAGAVVKALMKLNGQLMPTERNS
modifications: left off: His6, N-terminal, state not stated | EGFP, N-terminal, kept
